Data set [1] relates to HeLa Kyoto. Kind of data set: thermal stability score vs G1/S (z-score of summed log2 fold changes over temperatures); higher = more thermally stable than in G1/S.
Data set [2] deals with HeLa Kyoto. Kind of data set: solubility change mitosis vs G1/S (difference of NP-40 vs SDS log2 ratios) (log2 ratio difference); higher = more soluble in mitosis.
In data set [3] the test system is HeLa Kyoto. Kind of data set: melting temperature (median over replicates), in situ; higher = more thermally stable.
For data set [4], the system named is HeLa Kyoto. Kind of data set: solubility in G1/S (NP-40 vs SDS abundance) (log2 ratio); higher = more soluble. As to conditions: cell cycle stage: G1/S.
The mark [5] stands for this setting: cell cycle stage: early G1 (4.5 h after nocodazole release).
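Wherever melting temperature (median over replicates), in situ is given: HeLa Kyoto cells synchronized by double thymidine or nocodazole block, proteins quantified by TMT10plex mass spectrometry, three independent biological replicates.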
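Wherever solubility change mitosis vs G1/S (difference of NP-40 vs SDS log2 ratios) is given: synchronized HeLa Kyoto cells (double thymidine block for G1/S, nocodazole release for mitosis), protein amounts in NP-40 versus SDS lysates quantified by mass spectrometry, three biological replicates.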
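Wherever solubility in G1/S (NP-40 vs SDS abundance) is given: HeLa Kyoto cells arrested at G1/S by double thymidine block, proteins quantified by TMT10plex mass spectrometry in mild NP-40 versus SDS extracts, three biological replicates.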
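Wherever thermal stability score vs G1/S (z-score of summed log2 fold changes over temperatures) is given: synchronized HeLa Kyoto cells, proteins quantified by TMT10plex mass spectrometry, three biological replicates, mitosis taken 0.5 h after nocodazole release, G1/S directly after double thymidine block.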

Take “MRLRGCGPRAAPASSAGASDARLLAPPGRNPFVHELRLSALQKAQVALMTLTLFPVRLLVAAAMMLLAWPLALVASLGSAEKEPEQPPALWRKVVDFLLKAIMRTMWFAGGFHRVAVKGRQALPTEAAILTLAPHSSYFDAIPVTMTMSSIVMKAESRDIPIWGTLIQYIRPVFVSRSDQDSRRKTVEEIKRRAQSNGKWPQIMIFPEGTCTNRTCLITFKPGAFIPGAPVQPVVLRYPNKLDTITWTWQGPGALEILWLTLCQFHNQVEIEFLPVYSPSEEEKRNPALYASNVRRVMAEALGVSVTDYTFEDCQLALAEGQLRLPADTCLLEFARLVRGLGLKPEKLEKDLDRYSERARMKGGEKIGIAEFAASLEVPVSDLLEDMFSLFDESGSGEVDLRECVVALSVVCRPARTLDTIQLAFKMYGAQEDGSVGEGDLSCILKTALGVAELTVTDLFRAIDQEEKGKITFADFHRFAEMYPAFAEEYLYPDQTHFESCAETSPAPIPNGFCADFSPENSDAGRKPVRKKLD [LPCAT1]”: the thermal stability score with HeLa Kyoto [1] (setting [5]) stood at 2.41; in the data set on HeLa Kyoto [1] (cell cycle stage: mitosis), 3.77. For the same substance, in the data set on HeLa Kyoto [2], the “solubility change mitosis (log2)” value was -0.086. The values for the melting temperature in the data set with HeLa Kyoto [3] (cell cycle stage: G1/S) and with HeLa Kyoto [3] (cell cycle stage: mitosis) were 52 °C and 52.6 °C, respectively. For the same substance, in the data set with HeLa Kyoto [4], the “solubility in G1/S (log2)” value is -0.209.

As to “MAASKPVEAAVVAAAVPSSGSGVGGGGTAGPGTGGLPRWQLALAVGAPLLLGAGAIYLWSRQQRRREARGRGDASGLKRNSERKTPEGRASPAPGSGHPEGPGAHLDMNSLDRAQAAKNKGNKYFKAGKYEQAIQCYTEAISLCPTEKNVDLSTFYQNRAAAFEQLQKWKEVAQDCTKAVELNPKYVKALFRRAKAHEKLDNKKECLEDVTAVCILEGFQNQQSMLLADKVLKLLGKEKAKEKYKNREPLMPSPQFIKSYFSSFTDDIISQPMLKGEKSDEDKDKEGEALEVKENSGYLKAKQYMEEENYDKIISECSKEIDAEGKYMAEALLLRATFYLLIGNANAAKPDLDKVISLKEANVKLRANALIKRGSMYMQQQQPLLSTQDFNMAADIDPQNADVYHHRGQLKILLDQVEEAVADFDECIRLRPESALAQAQKCFALYRQAYTGNNSSQIQAAMKGFEEVIKKFPRCAEGYALYAQALTDQQQFGKADEMYDKCIDLEPDNATTYVHKGLLQLQWKQDLDRGLELISKAIEIDNKCDFAYETMGTIEVQRGNMEKAIDMFNKAINLAKSEMEMAHLYSLCDAAHAQTEVAKKYGLKPPTL [TOMM70A]”, the thermal stability score in the data set on HeLa Kyoto [1] (setting [5]) is 2.06; in the data set with HeLa Kyoto [1] (cell cycle stage: mitosis) it was 2.92. In the data set on HeLa Kyoto [2], the “solubility change mitosis (log2)” value worked out at 0.0273. For the same substance, the results for the melting temperature with HeLa Kyoto [3] (cell cycle stage: G1/S) and in the data set with HeLa Kyoto [3] (cell cycle stage: mitosis) were 50.4 °C and 50.1 °C, respectively. Besides, the “solubility in G1/S (log2)” value in the data set on HeLa Kyoto [4] is 0.504.

For the substance “MEAADASRSNGSSPEARDARSPSGPSGSLENGTKADGKDAKTTNGHGGEAAEGKSLGSALKPGEGRSALFAGNEWRRPIIQFVESGDDKNSNYFSMDSMEGKRSPYAGLQLGAAKKPPVTFAEKGELRKSIFSESRKPTVSIMEPGETRRNSYPRADTGLFSRSKSGSEEVLCDSCIGNKQKAVKSCLVCQASFCELHLKPHLEGAAFRDHQLLEPIRDFEARKCPVHGKTMELFCQTDQTCICYLCMFQEHKNHSTVTVEEAKAEKETELSLQKEQLQLKIIEIEDEAEKWQKEKDRIKSFTTNEKAILEQNFRDLVRDLEKQKEEVRAALEQREQDAVDQVKVIMDALDERAKVLHEDKQTREQLHSISDSVLFLQEFGALMSNYSLPPPLPTYHVLLEGEGLGQSLGNFKDDLLNVCMRHVEKMCKADLSRNFIERNHMENGGDHRYVNNYTNSFGGEWSAPDTMKRYSMYLTPKGGVRTSYQPSSPGRFTKETTQKNFNNLYGTKGNYTSRVWEYSSSIQNSDNDLPVVQGSSSFSLKGYPSLMRSQSPKAQPQTWKSGKQTMLSHYRPFYVNKGNGIGSNEAP [TRIM29]”, the thermal stability score with HeLa Kyoto [1] (setting [5]) is -0.827; with HeLa Kyoto [1] (cell cycle stage: mitosis), -1.46. The “solubility change mitosis (log2)” value in the data set on HeLa Kyoto [2] amounted to 0.303. Further, the melting temperature in the data set with HeLa Kyoto [3] (cell cycle stage: G1/S) turned out to be 50.6 °C; in the data set with HeLa Kyoto [3] (cell cycle stage: mitosis), 50.9 °C. The “solubility in G1/S (log2)” value with HeLa Kyoto [4] was -0.308.

For “MALPHDSNETSYLLPPNNEDWGRQTIPDFVYGQKDLMAEGIQWPRNAPGIPDALPQSPFDAALCSAWKQRVELGLFRYRLRELQTQILPGAVGFVAQLNVERGVQRRPPQTIKSVRQAFDPVQFNFNKIRPGEVLFRLHREPDLPGTLLQEDILVVINVSPLEWGHVLLVPEPARQLPQRLLPGALRAGIEAVLLSLHPGFRVGFNSLGGLASVNHLHLHGYYLAHRLPVEQAPSEPLDPGGHLHLLQDLPAPGFLFYTRGPGPDLESLISRVCRATDYLTDHEIAHNLFVTRGAPPGKTSPSSALTGVRVILWARKSSFGIKDGEAFNVALCELAGHLPVKTSQDFSSLTEAAAVALIQDCRLPPSQAEDVQAALVALMSQEEQ [GDPGP1]”, the thermal stability score in the data set on HeLa Kyoto [1] (setting [5]) was -0.152; in the data set on HeLa Kyoto [1] (cell cycle stage: mitosis), -0.661. The “solubility change mitosis (log2)” value with HeLa Kyoto [2] is -0.107. Further, the melting temperature is 52.5 °C with HeLa Kyoto [3] (cell cycle stage: G1/S) and 51 °C in the data set on HeLa Kyoto [3] (cell cycle stage: mitosis). Also, the “solubility in G1/S (log2)” value with HeLa Kyoto [4] worked out at 0.217.

“MRGPEPGPQPTMEGDVLDTLEALGYKGPLLEEQALTKAAEGGLSSPEFSELCIWLGSQIKSLCNLEESITSAGRDDLESFQLEISGFLKEMACPYSVLISGDIKDRLKKKEDCLKLLLFLSTELQASQILQNKKHKNSQLDKNSEVYQEVQAMFDTLGIPKSTTSDIPHMLNQVESKVKDILSKVQKNHVGKPLLKMDLNSEQAEQLERINDALSCEYECRRRMLMKRLDVTVQSFGWSDRAKVKTDDIARIYQPKRYALSPKTTITMAHLLAAREDLSKIIRTSSGTSREKTACAINKVLMGRVPDRGGRPNEIEPPPPEMPPWQKRQEGGGGRGGWGGGGGGGGRGGGGGGGGRGGWGGGGGGWGGGGGGGGGWGGGGGGGRGGFQGRGDYGGRGGYGGRGGYGGRGYGDPYGGGGGGGGGGGGGGGYRRY [FAM98B]”: the thermal stability score was -0.356 with HeLa Kyoto [1] (setting [5]) and 0.627 in the data set with HeLa Kyoto [1] (cell cycle stage: mitosis). Also, the “solubility change mitosis (log2)” value in the data set on HeLa Kyoto [2] amounted to 0.0481. Further, the melting temperature with HeLa Kyoto [3] (cell cycle stage: G1/S) was found to be 50.3 °C; with HeLa Kyoto [3] (cell cycle stage: mitosis), 51.5 °C. The “solubility in G1/S (log2)” value in the data set on HeLa Kyoto [4] was 0.558.

In the case of “MEPEAPRRRHTHQRGYLLTRNPHLNKDLAFTLEERQQLNIHGLLPPSFNSQEIQVLRVVKNFEHLNSDFDRYLLLMDLQDRNEKLFYRVLTSDIEKFMPIVYTPTVGLACQQYSLVFRKPRGLFITIHDRGHIASVLNAWPEDVIKAIVVTDGERILGLGDLGCNGMGIPVGKLALYTACGGMNPQECLPVILDVGTENEELLKDPLYIGLRQRRVRGSEYDDFLDEFMEAVSSKYGMNCLIQFEDFANVNAFRLLNKYRNQYCTFNDDIQGTASVAVAGLLAALRITKNKLSDQTILFQGAGEAALGIAHLIVMALEKEGLPKEKAIKKIWLVDSKGLIVKGRASLTQEKEKFAHEHEEMKNLEAIVQEIKPTALIGVAAIGGAFSEQILKDMAAFNERPIIFALSNPTSKAECSAEQCYKITKGRAIFASGSPFDPVTLPNGQTLYPGQGNNSYVFPGVALGVVACGLRQITDNIFLTTAEVIAQQVSDKHLEEGRLYPPLNTIRDVSLKIAEKIVKDAYQEKTATVYPEPQNKEAFVRSQMYSTDYDQILPDCYSWPEEVQKIQTKVDQ [ME1]”, the results for the thermal stability score with HeLa Kyoto [1] (setting [5]) and in the data set with HeLa Kyoto [1] (cell cycle stage: mitosis) were -1.35 and -1.4, respectively. For the same substance, the “solubility change mitosis (log2)” value in the data set with HeLa Kyoto [2] was -0.171. Besides, the melting temperature worked out at 56.5 °C with HeLa Kyoto [3] (cell cycle stage: G1/S) and 56.7 °C in the data set on HeLa Kyoto [3] (cell cycle stage: mitosis). Also, the “solubility in G1/S (log2)” value in the data set on HeLa Kyoto [4] was determined as 0.144.

With RAB1A, the results for the thermal stability score with HeLa Kyoto [1] (setting [5]) and with HeLa Kyoto [1] (cell cycle stage: mitosis) were -1.51 and -4.28, respectively. Besides, the “solubility change mitosis (log2)” value with HeLa Kyoto [2] was -0.093. Also, the values for the melting temperature in the data set on HeLa Kyoto [3] (cell cycle stage: G1/S) and in the data set on HeLa Kyoto [3] (cell cycle stage: mitosis) were 60.3 °C and 60.6 °C, respectively. Moreover, the “solubility in G1/S (log2)” value in the data set on HeLa Kyoto [4] turned out to be 0.166.

As to “MVSPATRKSLPKVKAMDFITSTAILPLLFGCLGVFGLFRLLQWVRGKAYLRNAVVVITGATSGLGKECAKVFYAAGAKLVLCGRNGGALEELIRELTASHATKVQTHKPYLVTFDLTDSGAIVAAAAEILQCFGYVDILVNNAGISYRGTIMDTTVDVDKRVMETNYFGPVALTKALLPSMIKRRQGHIVAISSIQGKMSIPFRSAYAASKHATQAFFDCLRAEMEQYEIEVTVISPGYIHTNLSVNAITADGSRYGVMDTTTAQGRSPVEVAQDVLAAVGKKKKDVILADLLPSLAVYLRTLAPGLFFSLMASRARKERKSKNS [DHRS7B]”, the thermal stability score with HeLa Kyoto [1] (setting [5]) was -0.951; in the data set with HeLa Kyoto [1] (cell cycle stage: mitosis) it was -0.984. For the same substance, the “solubility change mitosis (log2)” value in the data set with HeLa Kyoto [2] is -0.121. In addition, the figures for the melting temperature in the data set on HeLa Kyoto [3] (cell cycle stage: G1/S) and with HeLa Kyoto [3] (cell cycle stage: mitosis) were 51.6 °C and 51.4 °C, respectively. Besides, in the data set with HeLa Kyoto [4], the “solubility in G1/S (log2)” value was -0.22.

The values are drawn from the supplement of paper PMC5998384.
